Experimental data taken from US20240376151A1, “STAPLED PEPTIDES AND METHODS THEREOF” (FOG PHARMACEUTICALS, INC., priority 2022, published 2024).

Molecular target: T1, RNF31 UBA domain (Homo sapiens, UniProt Q96EP0)
T1 construct: RNF31 UBA domain protein (residues 480-639) with N-terminal Thioredoxin-TEV-6×his-yBBr-3C tags; Thioredoxin (N, cleaved yes); made in house; host or cells: E. coli BL21 (DE3) pLysS
T1 sequence (Q96EP0 480-639): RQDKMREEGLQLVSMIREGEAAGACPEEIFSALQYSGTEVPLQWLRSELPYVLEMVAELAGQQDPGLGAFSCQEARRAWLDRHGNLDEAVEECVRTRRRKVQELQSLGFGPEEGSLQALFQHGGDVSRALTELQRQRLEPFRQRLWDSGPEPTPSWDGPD
Assay: Phage Library Screening with NGS, RNF31 UBA domain
Assay type: binding
Details: for Phage library screen NGS readout, Target Concentration 10 / Phage library screen NGS readout, Target Concentration 30 / Phage library screen NGS readout, Target Concentration 100 / Phage library screen NGS readout, Target Concentration 300 / Phage library screen NGS readout, Target Concentration 1000: RNF31 UBA domain cluster C46; for Phage library screen NGS readout, BLANK: cluster C46; for phage screen NGS read-out at Target Concentration 10 / phage screen NGS read-out at Target Concentration 30 / phage screen NGS read-out at Target Concentration 100 / phage screen NGS read-out at Target Concentration 300: no competitor

[1] = target concentration 1000, first column
[2] = target concentration 1000, second column

| Sequence | phage screen NGS read-out at Target Concentration 10 | phage screen NGS read-out at Target Concentration 30 | phage screen NGS read-out at Target Concentration 100 | phage screen NGS read-out at Target Concentration 300 | also measured |
| --- | --- | --- | --- | --- | --- |
| DPAQRQCLSAAVWCATF |  |  |  |  | Phage library screen NGS readout, Target Concentration 10: 10; Phage library screen NGS readout, Target Concentration 30: 57; Phage library screen NGS readout, Target Concentration 100: 121; Phage library screen NGS readout, Target Concentration 300: 199; Phage library screen NGS readout, Target Concentration 1000 [1]: 201; Phage library screen NGS readout, Target Concentration 1000 [2]: 203; Phage library screen NGS readout, BLANK (column 1 of 5): 1; Phage library screen NGS readout, BLANK (column 2 of 5): 0; Phage library screen NGS readout, BLANK (column 3 of 5): 2; Phage library screen NGS readout, BLANK (column 4 of 5): 1; Phage library screen NGS readout, BLANK (column 5 of 5): 0 |
| DPAHHHCQAAAAWCWVM | 2 | 0 | 4 | 19 |  |
| DPAREHCAAAATWCOLL (DPAREHCAAAATWCQLL) | 1 | 0 | 1 | 28 |  |
| DPAQMFCYSAAVYCAAF |  |  |  |  | Phage library screen NGS readout, Target Concentration 10: 0; Phage library screen NGS readout, Target Concentration 30: 0; Phage library screen NGS readout, Target Concentration 100: 4; Phage library screen NGS readout, Target Concentration 300: 5; Phage library screen NGS readout, Target Concentration 1000 [1]: 8; Phage library screen NGS readout, Target Concentration 1000 [2]: 4; Phage library screen NGS readout, BLANK (column 1 of 5): 0; Phage library screen NGS readout, BLANK (column 2 of 5): 0; Phage library screen NGS readout, BLANK (column 3 of 5): 0; Phage library screen NGS readout, BLANK (column 4 of 5): 0; Phage library screen NGS readout, BLANK (column 5 of 5): 0 |
| DPANEHCIAAAWWCQIL | 0 | 0 | 0 | 3 |  |
| DPAFSRCVYAAVACEDH | 0 | 1 | 3 | 31 |  |
| DPAQMSCFSAAVYCRLF |  |  |  |  | Phage library screen NGS readout, Target Concentration 10: 0; Phage library screen NGS readout, Target Concentration 30: 0; Phage library screen NGS readout, Target Concentration 100: 11; Phage library screen NGS readout, Target Concentration 300: 10; Phage library screen NGS readout, Target Concentration 1000 [1]: 10; Phage library screen NGS readout, Target Concentration 1000 [2]: 17; Phage library screen NGS readout, BLANK (column 1 of 5): 0; Phage library screen NGS readout, BLANK (column 2 of 5): 0; Phage library screen NGS readout, BLANK (column 3 of 5): 0; Phage library screen NGS readout, BLANK (column 4 of 5): 0; Phage library screen NGS readout, BLANK (column 5 of 5): 0 |
| DPAQNHCDSAAVFCYIL | 0 | 0 | 1 | 8 |  |
| DPAFSMCVYAAVTCVST | 0 | 0 | 0 | 4 |  |
| DPALSTCVYAAVMCQDV | 0 | 0 | 2 | 4 |  |
| DPAAYLCDMAAHNCLYL | 1 | 0 | 0 | 0 |  |
| DPALTHCTAAAYWCYVM | 0 | 0 | 0 | 2 |  |
| DPAEYHCDAAAVWCYLM | 0 | 0 | 2 | 19 |  |
| DPAFSLCVYAALFCEQQ | 0 | 0 | 8 | 20 |  |
| DPAHVRCTSAALWCNIF |  |  |  |  | Phage library screen NGS readout, Target Concentration 10: 0; Phage library screen NGS readout, Target Concentration 30: 0; Phage library screen NGS readout, Target Concentration 100: 3; Phage library screen NGS readout, Target Concentration 300: 4; Phage library screen NGS readout, Target Concentration 1000 [1]: 5; Phage library screen NGS readout, Target Concentration 1000 [2]: 7; Phage library screen NGS readout, BLANK (column 1 of 5): 0; Phage library screen NGS readout, BLANK (column 2 of 5): 0; Phage library screen NGS readout, BLANK (column 3 of 5): 0; Phage library screen NGS readout, BLANK (column 4 of 5): 0; Phage library screen NGS readout, BLANK (column 5 of 5): 0 |
| DPARWVCELAAQNCLYR | 0 | 1 | 1 | 1 |  |
| DPAFSQCVYAAWHCESL | 1 | 0 | 2 | 7 |  |
| DPAEWLCQMAAHNCIYL | 0 | 1 | 2 | 13 |  |

| Sequence | phage screen NGS read-out at Target Concentration 10 | phage screen NGS read-out at Target Concentration 30 | phage screen NGS read-out at Target Concentration 100 | phage screen NGS read-out at Target Concentration 300 | also measured |
| --- | --- | --- | --- | --- | --- |
| DPAEQRCLSAAVYCAWH |  |  |  |  | Phage library screen NGS readout, Target Concentration 10: 1; Phage library screen NGS readout, Target Concentration 30: 3; Phage library screen NGS readout, Target Concentration 100: 16; Phage library screen NGS readout, Target Concentration 300: 18; Phage library screen NGS readout, Target Concentration 1000 [1]: 36; Phage library screen NGS readout, Target Concentration 1000 [2]: 26; Phage library screen NGS readout, BLANK (column 1 of 5): 0; Phage library screen NGS readout, BLANK (column 2 of 5): 1; Phage library screen NGS readout, BLANK (column 3 of 5): 1; Phage library screen NGS readout, BLANK (column 4 of 5): 0; Phage library screen NGS readout, BLANK (column 5 of 5): 0 |
| DPAQVHCRSAAAWCILM | 0 | 0 | 0 | 2 |  |
| DPAQQICLSAAVFCSIF | 0 | 0 | 4 | 10 |  |
| DPAHEHCTSAAAWCMLL | 0 | 0 | 0 | 2 |  |
| DPADYICYLAANNCLYH | 3 | 1 | 4 | 19 |  |
| DPADWTCVLAAHNCLYT | 0 | 0 | 0 | 1 |  |
| DPAHILCEMAARNCLYN | 3 | 1 | 1 | 1 |  |
| DPAMYICEMAAANCLYQ | 0 | 1 | 1 | 6 |  |
| DPAHEHCTAAASWCYIL | 0 | 0 | 3 | 8 |  |
| DPAFYECVYAAVTCTQF | 0 | 0 | 0 | 2 |  |
| DPAQRQCLSAAVFCATL |  |  |  |  | Phage library screen NGS readout, Target Concentration 10: 3; Phage library screen NGS readout, Target Concentration 30: 24; Phage library screen NGS readout, Target Concentration 100: 137; Phage library screen NGS readout, Target Concentration 1000 [1]: 292; Phage library screen NGS readout, Target Concentration 1000 [2]: 319; Phage library screen NGS readout, BLANK (column 1 of 5): 0; Phage library screen NGS readout, BLANK (column 2 of 5): 1; Phage library screen NGS readout, BLANK (column 3 of 5): 1; Phage library screen NGS readout, BLANK (column 4 of 5): 0; Phage library screen NGS readout, BLANK (column 5 of 5): 1 |
| DPAFSQCVYAAVVCEVQ | 2 | 0 | 11 | 55 |  |
| DPAREHCDSAAAWCWVL | 0 | 0 | 1 | 4 |  |
| DPAEWICEMAAHNCLYM | 0 | 1 | 1 | 1 |  |
| DPAFFTCVYAAVTCEMT | 0 | 0 | 0 | 3 |  |
| DPAITHCTAAAMWCHLL | 1 | 0 | 9 | 80 |  |
| DPAYEHCVAAAYWCYLL | 1 | 0 | 11 | 30 |  |
| DPALQHCAAAASWCWLM | 1 | 2 | 4 | 20 |  |
